Here are results for 16 sequences from US20090258363.

Where two headings read alike, the source gives them in different places.

Series [1] has as its system ZFP-FokI 4-residue ZC linker (synthetic). Briefly: cleavage_in_vitro.
Series [2] has as its system CCR-5 ZFN (GATGAGGATGAC) (synthetic). Briefly: cell_activity. The conditions noted are these: K562, with p32.
The subject of series [3] is CCR-5 ZFN (AAACTGCAAAAG) (synthetic). Kind of series: cell_activity. Conditions: K562, with p31.
The test system of series [4] is ZFP-FokI 10-residue ZC linker (synthetic). Briefly: cleavage_in_vitro.
The test system of series [5] is ZFP-FokI 2-residue ZC linker (synthetic). Briefly: cleavage_in_vitro.
In series [6] the test system is 296S ZFP-FokI (cells) (synthetic). Briefly: cell_activity. Conditions: with 287; 0.6 alone, 0.01 donor only.
Series [7] has as its system 296S ZFP-FokI E490K E490K (FokI numbering) (synthetic). Briefly: cell_activity. Conditions: with 287 Q486E; 0.01 alone.
Series [8] concerns 287A ZFP-FokI (cells) (synthetic). Kind of series: cell_activity. Conditions: with 296; 0.16 alone, 0.01 donor only.
The test system of series [9] is 287A ZFP-FokI Q486E Q486E (FokI numbering) (synthetic). Briefly: cell_activity. Conditions: with 296 E490K; 0.0 alone.

Consider “CTAGCATTATCCGAGTTCACACACACAACTCGGATAATGCTAG (double strand) [9 bp separation]”, for which the activity in [1] was determined as 23 % cleaved.

Regarding “CTAGCATTATCCGAGTTCACACAACTCGGATAATGCTAG (double strand) [5 bp separation]”, the activity in [1] was 92 % cleaved. In turn, “GATGAGGATGAC (double strand) [CCR-5 site 1]” gave an activity (% targeted insertion) in series [2] of 1.

Regarding “CTAGCATTATCCGAGTTCAACCACCAACCACACCAACTCGGATAATGCTAG (double strand) [17 bp separation]”, the activity in [1] is 77 % cleaved. As for “AAACTGCAAAAG (double strand) [CCR-5 site 2]”, the activity (% targeted insertion) in [3] amounted to 1. Regarding “CTAGGCATTATCCGAGTTCACCACAACTCGGATAATGACTAG (double strand) [6 bp separation]”, the values for the activity in series [4], in [5] and in series [1] were 76 % cleaved, 78 % cleaved and 95 % cleaved, respectively. Take GAAGCAGCA (double strand) [296S site]: the activity (% corrected cells) in series [6] amounted to 1.2; in [7], 0.62.

“CTAGCATTATCCGAGTTCACCACACAACTCGGATAATGCTAG (double strand) [8 bp separation]”: the figures for the activity in series [4] and in [1] were 63 % cleaved and 8 % cleaved, respectively. As to “CTAGCATTATCCGAGTTCACCACCAACCACACCAACTCGGATAATGCTAG (double strand) [16 bp separation]”, the activity in series [5] is 59 % cleaved; in [1], 100 % cleaved.

In series [1], “CTAGCATTATCCGAGTTCACACACAACTCGGATAATGCTAG (double strand) [7 bp separation]” registered an activity of 80 % cleaved.

Regarding “CTAGCATTATCCGAGTTCAACCACCAACCACACCAACACCACCAACTCGGATAATGCTAG (double strand) [26 bp separation]”, the activity in [1] worked out at 35 % cleaved.

Turning to “CTAGCATTATCCGAGTTCACCACCAACCACACAACTCGGATAATGCTAG (double strand) [15 bp separation]”, the results for the activity in series [4] and in series [1] were 88 % cleaved and 97 % cleaved, respectively.

As to GGGGTAGCGG (double strand) [287A site], the activity (% corrected cells) in series [8] was found to be 1.2; in series [9], 0.62. For “CTAGCATTATCCGAGTTCAACCACCAACCACACCAACACAACTCGGATAATGCTAG (double strand) [22 bp separation]”, the activity in series [1] amounted to 5 % cleaved. Take “CTAGCATTATCCGAGTTACACAACTCGGATAATGCTAG (double strand) [4 bp separation]”: the activity came out at 4 % cleaved in series [4]; 74 % cleaved in series [5]; 74 % cleaved in [1] (Mg, Zn, 37 C).

“CTAGCATTATCCGAGTTCACCACCAACACAACTCGGATAATGCTAG (double strand) [12 bp separation]” showed an activity in series [1] of 22 % cleaved.
